B1: CDC14A (parent)
chain: LWVQGDIFRSKLKNRPSSEGSINK
B2: STX11 (parent)
chain: FQRAMHDYNQAEMKQRDNCKIRIQ

Variants of: B1
Assay: protein stability index of a GFP-peptide fusion (GPS, HEK-293T) (PSI 1-6); higher = more stable
Details: c terminus: a fixed tail appended
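Also: lentivirally expressed fusions sorted by FACS into six bins by GFP to DsRed ratio, PSI derived from sequencing read proportions per bin multiplied by bin number.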

Variant	protein stability index
Q4K	2.19
Q4L	2.62
Q4S	3.29
Q4Y	1.95
Q4R	1.87
Q4N	2.66
Q4A	1.9
Q4W	1.82
L12V	2.36
L12F	2.29
L12S	2.89
L12Q	2.92
L12C	3.03
K13G	2.05
K13Y	1.89
K13R	2.67
K13E	2.53
K13S	2.54
K13T	2.7
K13M	1.93
K13H	2.55
K13A	2.38
W2P	4.26
W2C	3.8
W2Y	2.67

Variant	protein stability index
W2S	4.49
W2D	4.4
W2I	2.51
W2V	2.6
W2T	4.6
F8I	2.62
F8Q	3.78
F8P	4.1
F8W	2.51
F8T	3.3
N23F	1.45
N23C	2.17
N23W	2.8
N23G	3.05
N23K	2.69
N23A	2.08
N23D	2.8
N23M	2.15
R9L	2.35
R9P	3.18
R9C	2.22
R9F	2.57
R9H	2.55
R9K	3.02
R9M	2.18

Variant	protein stability index
R9Q	2.91
S17C	2.89
S17E	2.43
S17K	2.45
S17W	2.17
S17Q	2.05
S17D	2.85
S17Y	2.08
S17H	2.77
S17A	3.12
S17I	2.08
G5R	2.35
G5K	2.3
G5A	2.06
G5Y	1.39
G5W	1.87
G5H	2.52
G5T	2.29
G5M	1.75
G5D	3.21
G5P	2.69
G5E	3.34
I22T	3.39
I22A	3.1
I22R	3.2

Variant	protein stability index
I22Y	2.85
I22S	3.88
L1G	3.03
L1K	3.49
L1Q	2.79
L1Y	2.43
L1D	4.57
L1I	2.17
L1T	4.24
S21F	2.46
S21I	2.08
S21T	3.13
S21E	3.65
S21D	4.21
S21L	2.24
S21V	2.41
S21N	2.18
S21K	2.42
S21A	2.77
S21M	2.15
S21H	2.41
S21W	2.42
E19T	1.88
E19L	1.97
E19P	1.95

Variant	protein stability index
E19D	2.88
E19G	2.24
E19K	2.21
E19S	2.29
E19A	2.33
K24P	2.46
K24A	2.31
K24F	1.75
K24V	1.63
K24S	2.37
K24Y	1.73
K24L	1.91
K24E	2.73
K24W	2.47
R15P	2.81
R15I	2.52
R15Y	3.17
R15S	2.66
R15D	2.61
R15Q	3.09
R15K	3
R15A	2.81
R15G	2.91
R15E	3.02
I7H	3.37

Variant	protein stability index
I7G	2.83
I7T	3.3
I7V	2.98
I7C	3.09
I7P	3.15
I7S	3.21
I7K	3.54
I7Q	2.97
I7A	3.29
I7L	2.04
I7F	2.01
S18C	3.17
S18E	3.11
S18M	1.8
S18T	2.45
S18R	2.42
S18H	3.27
S18K	2.59
N14S	1.99
N14G	2.24
N14C	2.13
N14L	2.47
N14F	2.48
N14T	1.88
N14Q	2.36

Variant	protein stability index
N14A	2.6
K11R	2.72
K11D	2.38
K11Y	1.93
K11E	2.63
G20P	2.04
G20I	2.61
G20M	2.73
G20C	2.82
G20Q	2.61
G20V	2.23
G20D	2.64
P16H	2.52
P16I	2.36
P16L	1.57
P16A	2.8
P16W	1.74
P16N	2.51
P16T	2.6
P16K	2.68
P16G	2.02
V3W	2.55
V3A	3.45
V3F	2.64
V3C	2.94

Variant	protein stability index
D6A	2.27
D6N	2.83
D6P	2.34
D6E	2.63
D6K	1.74
D6R	1.9
D6Y	2.45
D6I	2.69
D6W	1.37
D6F	1.58
D6T	1.84
S10Y	3.11
S10R	3.23
S10A	2.29
S10M	2.49
S10P	2.27
S10C	2.3
S10Q	3.37
S10F	2.05
S10T	2.45
S10L	3.46
S10D	3.07
S10K	2.35
S10H	2.48
S10N	2.48

Variants of: B2
Assay: as above
Details: c terminus: a fixed tail appended

Variant	protein stability index
D17Y	1.89
R22Q	2.9
R22V	2.6
R22E	2.67
R22K	2.42
R22G	2.57
R22F	2.04
R22L	2.53
R22W	1.74
R22Y	2.59
R22I	2.58
R22D	3.13
R22A	2.61
R22C	2.37
R22H	2.49
R22T	2.54
R22P	3.02
R22S	3.44
R22M	2.8
R22N	2.61
C19M	2.85
C19Q	2.77
C19V	2.96

Variant	protein stability index
C19D	2.85
C19W	2.35
C19S	3.27
C19T	3.04
C19K	3.38
C19R	2.59
C19P	3.71
C19N	3.7
C19Y	2.61
C19E	3.06
C19A	2.98
C19L	2.54
C19H	4.44
C19I	2.55
C19F	1.85
C19G	3.06
K20D	3.11
K20I	1.3
K20L	3.26
K20G	2.35
K20C	2.23
K20N	2.83
K20S	3.15

Variant	protein stability index
K20R	2.37
K20H	3.21
K20E	2.74
K20T	2.47
K20A	2.32
K20V	2.14
K20Q	2.75
K20W	1.6
K20M	2.46
K20Y	1.41
K20F	1.69
K20P	2.37
N18F	2.36
N18E	3.11
N18Q	2.5
N18W	2.17
N18L	2.48
N18P	2.91
N18G	2.41
N18C	2.3
N18M	2.59
N18I	2.41
N18V	2.17

Variant	protein stability index
N18R	2.44
N18K	2.56
N18S	2.48
N18H	2.02
N18A	2.53
N18D	2.88
N18Y	2.17
N18T	3.21
I23M	2.99
I23T	3.19
I23R	2.74
I23G	3.25
I23Q	3.52
I23L	2.87
I23C	2.9
I23E	3.53
I23W	2.83
I23Y	2.98
I23K	2.93
I23D	3.38
I23F	2.5
I23N	3.78
I23V	2.85

Variant	protein stability index
I23P	3.24
I23S	2.66
I23H	2.8
I23A	3.51
Q24C	2.3
Q24T	2.77
Q24Y	2.05
Q24S	2.27
Q24D	2.81
Q24I	2.36
Q24R	2.33
Q24E	3.17
Q24W	1.6
Q24P	2.83
Q24F	2.17
Q24M	2.69
Q24L	3.09
Q24A	2.62
Q24N	2.95
Q24H	2.74
Q24G	2.75
Q24K	2.87
Q24V	2.42

Variant	protein stability index
I21R	3.56
I21C	2.36
I21V	1.92
I21P	2.9
I21T	3.17
I21G	3.08
I21N	2.98
I21A	3.01
I21F	2.34
I21H	2.76
I21W	3.17
I21E	2.92
I21D	3.86
I21Q	3.04
I21Y	2.93
I21K	2.68
I21S	3.5
I21L	2.29
I21M	3.12

— the supplement of paper PMC10567573
